Results taken from US9777056B2, “Immunotherapy for clearing pathological tau conformers” (New York University, priority 2006, dated 2017).

Test: Thioflavin T (ThT) in vitro fibrillogenesis assay
Format: physicochemical
Settings: 0.1 M Tris pH 7.4, incubated for different times
Experimental: ThT binds specifically to β-sheet structure and this binding produces a shift in its emission spectrum and a fluorescent enhancement proportional to the amount of amyloid formed. Following the incubation period, 50 mM glycine, pH 9.2, and 2 μM ThT was added to a final volume of 200 μl containing 3 μg of the immunogen or the P301L tau peptide (with or without equimolar concentration of antibodies purified from the immunized mice). Fluorescence was measured at excitation 435 nm and emission 485 nm on a SpectraMax M2 multi-detection plate reader (Molecular Devices, Sunnyvale, Calif.).

Aβ1-42: amyloid-β control peptide used for comparison in ThT and MTT assays
fibril formation (fibrillogenicity), Thioflavin T fluorescence: very fibrillogenic
